Data as given in paper PMC6402988.

Target: rVSV-EBOV GPΔβ17-β18 (Zaire ebolavirus (EBOV)) (UniProt Q05320)

Work on ADI-15946 IgG (antibody) yielded a neutralization efficiency of rVSV-EBOV GPΔβ17-β18 compared to GPWT of 10 fold.
